Changes are numbered by the printed parent chain.
Experiments:
c-Met-Fc control protein = molecular target: T1, c-Met-Fc control protein (UniProt P08581 25-932, limits assumed); test: phage ELISA on coated MET-Fc, anti-M13-HRP detection
T1 construct: Bought control protein; also called Met-Fc (R&D); c-Met-Fe; not shown: Fc part of the bought fusion protein; not described
Method: (§1) The selected phages were further examined by ELISA screening. The 96-well plates were coated with […] of VEGFR2-Fc, Met-Fc (R&D), or BSA (Sigma) protein in 0.1 M sodium bicarbonate overnight at 4° C. After blocking with 1% BSA in PBS (w/v) for 2 hr at room temperature, 70-randomly selected phage clones were added to the plates at a 1:2 dilution in 1% BSA, and incubated for 1 hr at room temperature. Following washes with PBST, the plates were incubated with a 1:2000 dilution of horseradish peroxidase (HRP)-conjugated mouse anti-M13 phage antibody (GE) for 1 hr. After washing with PBST, the colorimetric reaction was developed with the peroxidase substrate ortho-phenylenediamine (OPD; Sigma) plus H₂O₂ for 15 min, and then terminated by the addition of 3 N HCl. The absorbance at 490 nm was determined using a microplate reader (SpectraMax, Molecular Devices). Plasmid DNA of positive clones were isolated and sequenced using the pCANTAB5 sequencing primer set.
(§2) After four rounds of affinity selection (biopanning), the titer of bound phage increased by as much as 3,455-fold (FIG. 1A).

[1] = molecular target: T2, VEGFR2-Fc recombinant protein (R&D Systems) (human, UniProt P35968 20-764); test: phage ELISA, 1x10^9 cfu phage on coated VEGFR2-Fc, anti-M13-HRP detection
T2 construct: Bought protein; also called VEGFR2 recombinant protein; immobilized VEGFR2; not shown: Fc part of the bought fusion protein; not described
T2 sequence (P35968 20-764 limits assumed): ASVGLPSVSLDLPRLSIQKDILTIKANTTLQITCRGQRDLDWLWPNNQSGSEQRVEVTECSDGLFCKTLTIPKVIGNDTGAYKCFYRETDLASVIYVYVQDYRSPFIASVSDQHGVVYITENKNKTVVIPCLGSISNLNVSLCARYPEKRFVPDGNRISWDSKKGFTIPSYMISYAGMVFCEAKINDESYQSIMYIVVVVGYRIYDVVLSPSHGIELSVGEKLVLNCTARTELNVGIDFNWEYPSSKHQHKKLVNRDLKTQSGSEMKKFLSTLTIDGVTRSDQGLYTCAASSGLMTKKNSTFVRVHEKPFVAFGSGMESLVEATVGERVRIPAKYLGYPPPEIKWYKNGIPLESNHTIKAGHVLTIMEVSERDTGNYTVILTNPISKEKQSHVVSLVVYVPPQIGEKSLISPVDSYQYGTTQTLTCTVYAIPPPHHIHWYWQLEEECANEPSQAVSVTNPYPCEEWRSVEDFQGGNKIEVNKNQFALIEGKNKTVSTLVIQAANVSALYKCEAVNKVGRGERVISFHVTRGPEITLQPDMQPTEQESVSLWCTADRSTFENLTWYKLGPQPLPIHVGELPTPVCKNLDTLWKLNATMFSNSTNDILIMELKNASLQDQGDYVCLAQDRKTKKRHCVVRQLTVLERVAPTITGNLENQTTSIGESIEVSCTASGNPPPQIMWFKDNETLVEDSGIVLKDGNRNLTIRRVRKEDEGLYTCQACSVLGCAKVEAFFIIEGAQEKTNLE
Method: as §1, §2

[2] = molecular target: T3, VEGFR2 on the cell surface of human umbilical vein endothelial cells (HUVEC) (human, UniProt P35968 20-1356); test: flow cytometry on HUVECs, 1x10^10 cfu phage, anti-M13 and PE-labelled secondary antibody
T3 construct: Endogenous receptor of human cells; also called cell-surface VEGFR2; cellular VEGFR2
T3 sequence (P35968 20-1356 limits assumed): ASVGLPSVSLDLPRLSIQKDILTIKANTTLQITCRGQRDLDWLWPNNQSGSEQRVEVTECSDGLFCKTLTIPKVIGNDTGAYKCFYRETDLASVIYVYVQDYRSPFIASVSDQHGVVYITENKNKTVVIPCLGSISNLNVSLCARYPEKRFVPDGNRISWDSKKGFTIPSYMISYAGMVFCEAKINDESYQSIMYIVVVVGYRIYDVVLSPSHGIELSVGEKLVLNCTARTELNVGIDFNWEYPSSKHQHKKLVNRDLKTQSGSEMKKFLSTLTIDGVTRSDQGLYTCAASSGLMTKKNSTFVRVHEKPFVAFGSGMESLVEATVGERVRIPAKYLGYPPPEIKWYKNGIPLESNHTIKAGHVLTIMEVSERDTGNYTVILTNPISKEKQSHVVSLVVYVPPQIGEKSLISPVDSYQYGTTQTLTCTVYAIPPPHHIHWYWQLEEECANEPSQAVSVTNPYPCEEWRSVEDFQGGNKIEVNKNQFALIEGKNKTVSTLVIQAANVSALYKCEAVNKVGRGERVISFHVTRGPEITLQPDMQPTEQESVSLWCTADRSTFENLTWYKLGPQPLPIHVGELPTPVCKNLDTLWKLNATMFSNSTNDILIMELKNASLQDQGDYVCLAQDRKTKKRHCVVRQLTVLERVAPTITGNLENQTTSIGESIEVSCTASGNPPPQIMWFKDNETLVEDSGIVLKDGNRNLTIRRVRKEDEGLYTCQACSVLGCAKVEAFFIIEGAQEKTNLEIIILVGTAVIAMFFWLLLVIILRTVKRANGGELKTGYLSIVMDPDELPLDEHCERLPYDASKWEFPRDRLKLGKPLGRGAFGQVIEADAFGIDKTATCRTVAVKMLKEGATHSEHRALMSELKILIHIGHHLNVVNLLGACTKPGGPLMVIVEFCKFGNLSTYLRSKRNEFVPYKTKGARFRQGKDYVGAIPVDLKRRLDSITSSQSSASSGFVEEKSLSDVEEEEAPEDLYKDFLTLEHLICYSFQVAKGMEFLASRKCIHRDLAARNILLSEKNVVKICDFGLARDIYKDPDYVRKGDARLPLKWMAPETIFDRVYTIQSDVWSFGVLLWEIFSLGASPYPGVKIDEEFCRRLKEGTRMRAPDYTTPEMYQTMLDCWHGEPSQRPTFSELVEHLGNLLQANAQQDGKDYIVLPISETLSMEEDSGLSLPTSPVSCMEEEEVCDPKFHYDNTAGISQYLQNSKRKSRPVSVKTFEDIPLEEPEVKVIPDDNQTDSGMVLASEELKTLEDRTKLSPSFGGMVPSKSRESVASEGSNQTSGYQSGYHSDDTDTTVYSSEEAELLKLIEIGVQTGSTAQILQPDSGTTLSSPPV
Method: About 1×10⁴ HUVEC were incubated with the selected anti-VEGFR2 phage clones at 4° C. for 1 hour in FACS buffer (PBS containing 1% fetal bovine serum). After the cells were washed with FACS buffer, they were first incubated with mouse anti-M13 phage Ab for 1 hr at 4° C., and then with R-phycoerythrin-conjugated goat anti-mouse IgG (Jackson Immuno Research) for 30 min at 4° C. Flow cytometry was performed with a FACSCantoII (BD), and emission fluorescence intensity was measured with FACS Diva software (BD) to quantitatively compare binding affinities.
as §2

[3] = molecular target: T2, VEGFR2-Fc recombinant protein (R&D …); test: SPR, BIACORE T100, VEGFR2-Fc coupled to CM5 chip, IgG as analyte
Method: (§3) The affinity and kinetics of anti-VEGFR2 antibodies were measured by surface plasmon resonance in a BIACORE T100™ (GE healthcare). VEGFR2-Fc protein was coupled to an EDC- and NHS-activated CM5 sensor chip in a BIACORE flow cell, and then blocked with ethanolamine according to the manufacturer's directions. Associated and dissociated phases were monitored under continuous flow of 30 μl/min, using antibody concentrations ranging from 0.1 to 100 nM for 5 min. Regeneration was performed by injection of regenerate buffer (0.2 M NaCl, 10 mM glycine, pH 2.7). To determine binding constants, the sensorgrams were fit globally to a sample 1:1 interaction model using BIAevaluation software (GE healthcare).
(§4) We analyzed the affinity of both human antibodies to VEGFR2 using a BIACORE T100™.

[4] = molecular target: T2, VEGFR2-Fc recombinant protein (R&D …); test: surface plasmon resonance, BIACORE T100, VEGFR2-Fc coupled to a CM5 chip, purified IgG as analyte
Method: as §3, §4

[5] = molecular target: T2, VEGFR2-Fc recombinant protein (R&D …); test: solid-phase competitive ELISA: antibody against 4 nM VEGF-A on immobilized VEGFR2

T1 sequence (P08581 25-932 limits assumed): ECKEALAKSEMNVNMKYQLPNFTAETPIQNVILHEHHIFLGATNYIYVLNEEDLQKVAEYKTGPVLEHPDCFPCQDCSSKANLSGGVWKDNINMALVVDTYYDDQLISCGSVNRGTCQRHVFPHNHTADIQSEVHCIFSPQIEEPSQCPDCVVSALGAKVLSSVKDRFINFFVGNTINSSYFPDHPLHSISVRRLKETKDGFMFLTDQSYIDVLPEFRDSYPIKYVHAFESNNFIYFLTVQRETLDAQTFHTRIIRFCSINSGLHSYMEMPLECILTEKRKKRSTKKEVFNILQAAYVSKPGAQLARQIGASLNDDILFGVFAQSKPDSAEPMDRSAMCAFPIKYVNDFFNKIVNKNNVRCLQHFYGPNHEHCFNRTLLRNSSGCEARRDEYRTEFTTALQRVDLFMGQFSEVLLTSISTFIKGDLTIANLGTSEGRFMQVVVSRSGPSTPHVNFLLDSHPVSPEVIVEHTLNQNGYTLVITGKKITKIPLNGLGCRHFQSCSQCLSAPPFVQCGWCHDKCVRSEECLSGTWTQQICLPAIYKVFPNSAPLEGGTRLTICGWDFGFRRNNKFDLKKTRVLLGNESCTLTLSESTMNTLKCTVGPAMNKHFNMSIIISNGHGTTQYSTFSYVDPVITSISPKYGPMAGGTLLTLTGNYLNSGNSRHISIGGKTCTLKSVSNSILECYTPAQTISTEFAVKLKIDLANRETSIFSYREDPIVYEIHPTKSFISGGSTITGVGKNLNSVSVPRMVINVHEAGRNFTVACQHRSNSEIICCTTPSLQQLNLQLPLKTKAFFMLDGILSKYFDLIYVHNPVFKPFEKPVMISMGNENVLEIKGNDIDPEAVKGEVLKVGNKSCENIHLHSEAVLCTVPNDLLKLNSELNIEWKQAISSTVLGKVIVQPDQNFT

B1: R2PC45 (scFv, V domains shown)
VH: QVNLRESGGGVVQPGRSLRLSCAASGFTFSSYAMHWVRQAPGKGLEWVAVISYDGSNKYYADSVKGRFTISRDNSKNTLYLQMNSLRAEDTAVYYCAREQDYGSSSGDAFDIWGQGTMVTVSS
VL: DIQMTQSPSSLSASVGDRVTITCRASQRISSYLNWYQQKPGKAPKLLIYDASNLQSGVPSRFSGSGSGTDFTLTINGLQPDDFAIYFCHQSYSAPPTFGQGTKVEIK
notes: also called anti-VEGFR2 scFv phage clone 45
B1: no binding (tested: 1x10^9 cfu) (c-Met-Fc control protein); binds [1]; binds [2].

B2: anti-VEGFR2-AF fully human antibody (hAb) (antibody, human IgG1)
heavy: not shown
light: DIQMTQSPSSLSASVGDRVTITCKASDDIINYLNWYQQKPGEAPKLLIYDASILETGVPSRFSGSGSGTDFTFTISSLQPEDIATYYCQQLDDIPITFGGGTKLEIK
notes: also called anti-VEGFR2-AF hAb; R2S12-AF in human IgG1 backbone; not shown: kappa constant region of vector p-Kappa-HuGs
Work on B2 yielded a Kd [3] of 0.264 nM, a koff [4] of 0.000442 s⁻¹ and a kon [4] of 1.67e+06 M⁻¹ s⁻¹. It also gave an IC50 [5] of 0.88 nM.

B3: anti-VEGFR2 fully human antibody (hAb) (antibody)
heavy: not shown
light: B2 light with L91Y, D93I, I94L, I96L
notes: also called anti-VEGFR2 hAb; R2S12 in human IgG1 backbone; not shown: kappa constant region of vector p-Kappa-HuGs
Work on B3 yielded a Kd [3] of 2.1 nM, a koff [4] of 0.000472 s⁻¹ and a kon [4] of 225000 M⁻¹ s⁻¹. It also gave an IC50 [5] of 1.87 nM.
